Measured values taken from IntAct's records for PubMed 15047801.

B1: Zinc finger CCCH domain-containing protein 7B (Homo sapiens), Q9UGR2 (parent)
chain: MERQKRKADIEKGLQFIQSTLPLKQEEYEAFLLKLVQNLFAEGNDLFREKDYKQALVQYMEGLNVADYAASDQVALPRELLCKLHVNRAACYFTMGLYEKALEDSEKALGLDSESIRALFRKARALNELGRHKEAYECSSRCSLALPHDESVTQLGQELAQKLGLRVRKAYKRPQELETFSLLSNGTAAGVADQGTSNGLGSIDDIETDCYVDPRGSPALLPSTPTMPLFPHVLDLLAPLDSSRTLPSTDSLDDFSDGDVFGPELDTLLDSLSLVQGGLSGSGVPSELPQLIPVFPGGTPLLPPVVGGSIPVSSPLPPASFGLVMDPSKKLAASVLDALDPPGPTLDPLDLLPYSETRLDALDSFGSTRGSLDKPDSFMEETNSQDHRPPSGAQKPAPSPEPCMPNTALLIKNPLAATHEFKQACQLCYPKTGPRAGDYTYREGLEHKCKRDILLGRLRSSEDQTWKRIRPRPTKTSFVGSYYLCKDMINKQDCKYGDNCTFAYHQEEIDVWTEERKGTLNRDLLFDPLGGVKRGSLTIAKLLKEHQGIFTFLCEICFDSKPRIISKGTKDSPSVCSNLAAKHSFYNNKCLVHIVRSTSLKYSKIRQFQEHFQFDVCRHEVRYGCLREDSCHFAHSFIELKVWLLQQYSGMTHEDIVQESKKYWQQMEAHAGKASSSMGAPRTHGPSTFDLQMKFVCGQCWRNGQVVEPDKDLKYCSAKARHCWTKERRVLLVMSKAKRKWVSVRPLPSIRNFPQQYDLCIHAQNGRKCQYVGNCSFAHSPEERDMWTFMKENKILDMQQTYDMWLKKHNPGKPGEGTPISSREGEKQIQMPTDYADIMMGYHCWLCGKNSNSKKQWQQHIQSEKHKEKVFTSDSDASGWAFRFPMGEFRLCDRLQKGKACPDGDKCRCAHGQEELNEWLDRREVLKQKLAKARKDMLLCPRDDDFGKYNFLLQEDGDLAGATPEAPAAAATATTGE

Variants of: B1
Conditions: with nsp3_rots4 nsp3, Q00721
Sequence of nsp3_rots4 nsp3, Q00721 (Q00721 whole entry): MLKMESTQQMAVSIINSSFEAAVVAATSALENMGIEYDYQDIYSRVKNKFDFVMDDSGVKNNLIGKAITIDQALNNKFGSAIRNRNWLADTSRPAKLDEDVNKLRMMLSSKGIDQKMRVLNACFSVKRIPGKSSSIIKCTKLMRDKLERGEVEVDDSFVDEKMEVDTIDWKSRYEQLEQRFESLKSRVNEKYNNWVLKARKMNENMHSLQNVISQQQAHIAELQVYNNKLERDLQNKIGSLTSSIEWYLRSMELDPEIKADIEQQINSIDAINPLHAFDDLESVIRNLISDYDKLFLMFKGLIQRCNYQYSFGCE
With L252A;D253A;D254A the “effect of a mutation on the interaction” value was “decreasing interaction”.
